Data on 8 molecules can be found in patent CN113912731A (SHENGHE CHINA BIO PHARMACY CO LTD, dated 2022).

Assay [1] deals with T1, 人FGL1-his蛋白(Sinobio;Cat:13484-H08B) (human, UniProt Q08830 23-312).
T1 construct: Bought protein; also called 重组人FGL1-his蛋白; not shown: his tag
T1 sequence (looked up): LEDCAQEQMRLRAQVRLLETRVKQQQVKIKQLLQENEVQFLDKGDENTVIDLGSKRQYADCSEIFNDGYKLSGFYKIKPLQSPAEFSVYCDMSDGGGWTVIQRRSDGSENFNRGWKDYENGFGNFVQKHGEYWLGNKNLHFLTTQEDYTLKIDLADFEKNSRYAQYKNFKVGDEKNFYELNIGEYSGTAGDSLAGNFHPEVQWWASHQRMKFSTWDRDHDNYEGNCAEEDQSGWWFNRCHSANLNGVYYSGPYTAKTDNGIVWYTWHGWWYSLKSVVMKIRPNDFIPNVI
The assay can be described thus: ELISA, plate coated with human FGL1-his. For orientation: ELISA stands for enzyme-linked immunosorbent assay.

The target of a further assay is T2, 鼠FGL1-his (mouse, UniProt Q71KU9 23-314, limits assumed).
T2 construct: also called 小鼠FGL1蛋白; 鼠FGL1蛋白; not shown: his tag
T2 sequence (looked up): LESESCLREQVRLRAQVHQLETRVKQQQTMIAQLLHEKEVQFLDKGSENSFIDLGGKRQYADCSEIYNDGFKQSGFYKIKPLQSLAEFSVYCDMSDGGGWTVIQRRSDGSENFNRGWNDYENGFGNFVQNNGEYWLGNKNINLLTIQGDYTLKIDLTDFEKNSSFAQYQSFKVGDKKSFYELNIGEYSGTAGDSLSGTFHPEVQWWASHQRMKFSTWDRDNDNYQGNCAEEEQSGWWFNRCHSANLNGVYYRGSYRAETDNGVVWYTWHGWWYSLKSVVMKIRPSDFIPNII
The assay is described as follows: human/mouse cross-reactivity (ELISA of Example 8).

B1: SH-08 (antibody, V domains shown)
VH: EVQLVESGGGLVKPGGSLRLSCAASGFTFSSYSMNWVRQAPGKGLEWVSSISSSSSYIYYADSVKGRFTISRDNAKNSLYLQMNSLRAEDTAVYYCARDFPSPSGGRGFRPTTARGYGMDVWGQGTTVTVSS
VL: QSALTQPASVSGSPGQSIIISCTGSKSDIGTYNFVSWYQQHPGKAPNVIIYNVNKRPSGVSDRFSGSKSGNTASLTISGLQAEDEADFYCSSYTSSGTHVFGSGTKVIVL
notes: From the human natural phage display library; also called 抗体SH-08; not shown: 轻链恒定区
Take B1: the binding result in assay [1] is recorded as “binds”.

B2: SH-05 (antibody, V domains shown)
VH: EVQLVQSGGVVVQPGGSLRLSCAASGFTFDDYAMHWVRQAPGKGLEWVSLISWDGGSTYYADSVKGRFTISRDNSKNTLYLQMNSLRAEDTAVYYCARNSGRRNWFDPWGQGTLVTVSS
VL: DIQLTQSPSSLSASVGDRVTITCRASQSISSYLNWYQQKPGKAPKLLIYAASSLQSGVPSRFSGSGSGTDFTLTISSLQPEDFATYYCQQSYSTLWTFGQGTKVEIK
notes: From the human natural phage display library; also called 抗体SH-05; not shown: 轻链恒定区
B2: in assay [1], the binding result is recorded as “binds”.

B3: SH-09 (antibody, human IgG1, V domains shown)
VH: QVQLVESGGGLVQPGGSLRLSCTASGFNLDFYTIGWFLQAPGKEREGVSCISNSGGSSVYADSVKGRFTISRDSAKNTVYLQMNSLDPEDTAVYYCAALAGRGCMRSPITTDEYDSWGQGTQVTVSS
notes: Heavy-chain-only antibody from the alpaca immune phage library; expressed in CHO cells; also called 抗体SH-09
As for B3, in assay [1], the binding result is recorded as “binds”.

B4: SH-10 (antibody, human IgG1, V domains shown)
VH: EVQLVESGGGLVQPGGSLRLSCAASGDTLDYYAIGWFRQAPGKEREGVSCIRSSGSGPHYSDSVQDRFIISRDNARGTVYLQMNSLKPEDTAVYYCAATEGFYCSPTLSQGEYDYWGQGTQVTVSS
notes: Heavy-chain-only antibody from the alpaca immune phage library; expressed in CHO cells; also called 抗体SH-10
With B4, the binding result in assay [1] is “binds”.

B5: SH-06 (antibody, V domains shown)
VH: QVQLQESGPGLVKPSQTLSLTCTVSGGSISSGGYYWSWIRQHPGKGLEWIGYIYYSGSTYYNPSLKSRVTISVDTSKNQFSLKLSSVTAADTAVYYCARDSVMGYAPRVRAFDIWGQGTMVTVSS
VL: QSALTQPPSASGTPGQRVTISCSGSSSNIGTNTVNWYQQLPGTAPKLLIYSTNQRPSGVPDRFSGSKSGTSASLAISGLQSEDEADYYCSSWAGDLNGRLFGGGTKLTVL
notes: From the human natural phage display library; also called 抗体SH-06; not shown: 轻链恒定区
As for B5, the binding result in assay [1] is “binds”.

B6: SH-03 (antibody, V domains shown)
VH: QVQLQQSGPELVKPGASVKISCKASGYTFTDYYINWLRQKPGQGLEWIGWIYPGSANTNYNEKFKGKAILTVDTSSSTAYMQLSSLTSEDTAVYFCARWLLRSAYWGQGTLVTVSA
VL: DIVLSQSPAILSASPGEKVTMTCRASSSVSYMYWYQQKPGSSPKPWIYATSNLASGVPARFSGSGSGTSYSLTISRVEAEDAATYYCQQWSSNPYTFGGGTKLEIK
notes: From hybridoma; also called 抗体SH-03; not shown: 轻链恒定区
Turning to B6, the binding result in assay [1] is “binds”.

B7: SH-07 (antibody, V domains shown)
VH: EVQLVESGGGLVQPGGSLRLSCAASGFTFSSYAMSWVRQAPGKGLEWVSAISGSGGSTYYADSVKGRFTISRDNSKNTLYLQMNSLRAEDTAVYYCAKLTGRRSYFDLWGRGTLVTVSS
VL: DIQMIQSPSSLSASVGDRVTITCRASQSISHYLNWYQQKPGKVPKLLIYAASSLQSGVPSRFSGSGSGTDFTLTISSLQPEDFATYYCQQSYSTPSFGQGTKVEIK
notes: From the human natural phage display library; also called 抗体SH-07; not shown: 轻链恒定区
For B7, the binding result (with 鼠FGL1-his; in assay [1]) was “binds” each time.

B8: SH-04 (antibody, V domains shown)
VH: EVQLQQSGPELEKPGASVKMSCKASGYTFTRYWMHWVKQRPGQGLEWIGMIDPSDSYTSYNQKFKGKATLTVDTSSSTAYMQLSSLTSEDSAVYYCTLRPGLDYWGQGTTLTVSS
VL: DIVMTQSQKFMSTSVGDRVSVTCKASQNVGTNVAWYQQKPGQSPKALIYSASYRYSGVPDRFTGSGSGTDFTLTISNVQSEDLAEYFCQQYNSYPLTFGGGTKLEIK
notes: From hybridoma; also called 抗体SH-04; not shown: 轻链恒定区
Regarding B8, in assay [1], the binding result was “binds”.
